Test results as given in patent US20260242478A1 (published 2026).

B1: Phage-2319 (peptide)
peptide: SDNWCKPKWMCETI
B2: Phage-2396 (peptide)
peptide: EVKWCIPEWMCMVV
B3: Phage-2324 (peptide)
peptide: HSHWCIPPWMCTFV
B4: Phage-2392 (peptide)
peptide: SPKWCTPSWMCELQ
B5: Phage-2326 (peptide)
peptide: GPTLCIPAWMCSGM
B6: Phage-2391 (peptide)
peptide: FPKWCTPSWMCDFV
B7: Phage-2380 (peptide)
peptide: VQKWCIPPWMCQIS
B8: Phage-2322 (peptide)
peptide: LEKWCIPTWMCEMT
B9: Phage-2387 (peptide)
peptide: DAKWCIPDWMCYGF
B10: Phage-2388 (peptide)
peptide: TIKWCTPPWMCIMN
B11: Phage-2398 (peptide)
peptide: FGISCTPSWMCEGF
B12: Phage-2379 (peptide)
peptide: LHKWCTPAWMCEVP
B13: Phage-2394 (peptide)
peptide: LERWCIPDWMCEWP
B14: Phage-2381 (peptide)
peptide: LGIWCIPEWMCVSA
B15: Phage-2376 (peptide)
peptide: PDKWCIPQWMCDIT
B16: Phage-2321 (peptide)
peptide: LDKWCIPPWMCETV
B17: Phage-2399 (peptide)
peptide: WEKWCTPAWMCAVA
B18: Phage-2373 (peptide)
peptide: GEKWCIPTWMCDWT
B19: Phage-2382 (peptide)
peptide: DFMRCTPEWMCTGF
B20: Phage-2320 (peptide)
peptide: VSNWCIPRGLCTQM
B21: Phage-2327 (peptide)
peptide: SVHWCTPPWMCQGF
B22: Phage-2374 (peptide)
peptide: MGNWCIPEWMCWGT
B23: Phage-2325 (peptide)
peptide: VEKLCIPHWMCEAS
B24: Phage-2395 (peptide)
peptide: ASMWCIPPWMCAED
B25: Phage-2375 (peptide)
peptide: DGKWCIPPWMCAMA
B26: Phage-2384 (peptide)
peptide: FYKWCTPEWMCTVN
B27: Phage-2389 (peptide)
peptide: WVKWCTPPWMCEWD
B28: Phage-2385 (peptide)
peptide: IPKWCTPVWMCAGF
B29: Phage-2378 (peptide)
peptide: VVKWCIPTWMCQTL
B30: Phage-2377 (peptide)
peptide: HDKLCIPLWMCDGV
B31: Phage-2323 (peptide)
peptide: WDHWCTPAWMCFNA
B32: Phage-2400 (peptide)
peptide: DVRWCTPPWMCVAM
B33: Phage-2393 (peptide)
peptide: LEKWCRPAWMCNGM
B34: Phage-2386 (peptide)
peptide: VEKWCKPEWMCTSL
B35: Phage-2390 (peptide)
peptide: VFHLCMPPWMCSQD
B36: Phage-2328 (peptide)
peptide: VDKWCIPAWMCVSA
B37: Phage-2397 (peptide)
peptide: VVKWCTPAWMCELQ
B38: Phage-2383 (peptide)
peptide: FEHWCTPPWMCFSS

Columns and labels:
PSMA Fab (006 PSMA Fab) [1] = biological target: T1, PSMA Fab (006 PSMA Fab); assay: clonal phage ELISA; biotinylated PSMA Fab on neutravidin plate, blocking buffer alone; anti-M13-HRP detection;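 also: clonal phage applied as crude supernatants to wells preincubated with blocking buffer, binding read by ELISA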
T1 construct: also called Anti-PSMA Fab; anti-PSMA Fab
Protocol: (§1) Clonal phage were harvested as crude supernatants and screened via standard ELISAs. […] Prior to the addition of clonal phage. wells were incubated with blocking buffer and PSMA antigen or blocking buffer alone. Without washing or aspirating, clonal phage supernatants were then added to the wells and incubated for a short time. Wells were then washed followed by detection of bound phage using a horse radish conjugated anti-M13 antibody.

PSMA Fab (006 PSMA Fab) [2] = biological target: T1, PSMA Fab (006 PSMA Fab); assay: clonal phage ELISA; biotinylated PSMA Fab on neutravidin plate pre-incubated with competitor PSMA antigen; anti-M13-HRP detection
Protocol: as §1

PSMA Fab [3] = biological target: T2, PSMA Fab; assay: phage ELISA, biotinylated PSMA Fab on neutravidin plate, bound phage detected with anti-M13-HRP
T2 construct: also called Anti-PSMA Fab; 006 PSMA Fab
Protocol: as §1

PSMA Fab [4] = biological target: T2, PSMA Fab; assay: phage ELISA, biotinylated PSMA Fab on neutravidin plate pre-incubated with PSMA antigen as competitor, anti-M13-HRP
Protocol: as §1

006 PSMA Fab [5] = biological target: T3, 006 PSMA Fab; assay: clonal phage ELISA; biotinylated PSMA Fab on neutravidin plate, anti-M13-HRP detection
T3 construct: Biotinylated and captured on neutravidin-coated plates in the phage ELISA; also called Anti-PSMA Fab
Protocol: as §1

006 PSMA Fab [6] = biological target: T3, 006 PSMA Fab; assay: clonal phage ELISA on PSMA Fab-coated plate; competitor: PSMA antigen pre-incubated in the well
Protocol: as §1

Row | Binder | Phage binding ELISA signal, Anti-PSMA Fab (PSMA Fab [3]) | Phage binding ELISA signal, Anti-PSMA Fab with PSMA antigen (PSMA Fab [4]) | phage binding ELISA signal (006 PSMA Fab [5]) | phage binding ELISA signal in presence of PSMA (006 PSMA Fab [6]) | other results
1 | B1 |  |  |  |  | Phage binding ELISA signal, Anti-PSMA Fab (PSMA Fab (006 PSMA Fab) [1]): 1.45; Phage binding ELISA signal, Anti-PSMA Fab in presence of PSMA antigen (PSMA Fab (006 PSMA Fab) [2]): 0.116
2 | B2 | 1.37 | 0.0647 |  |  | 
3 | B3 |  |  |  |  | Phage binding ELISA signal, Anti-PSMA Fab (PSMA Fab (006 PSMA Fab) [1]): 1.45; Phage binding ELISA signal, Anti-PSMA Fab in presence of PSMA antigen (PSMA Fab (006 PSMA Fab) [2]): 0.162
4 | B4 | 1.38 | 0.06 |  |  | 
5 | B5 |  |  |  |  | Phage binding ELISA signal, Anti-PSMA Fab (PSMA Fab (006 PSMA Fab) [1]): 1.45; Phage binding ELISA signal, Anti-PSMA Fab in presence of PSMA antigen (PSMA Fab (006 PSMA Fab) [2]): 0.0802
6 | B6 | 1.38 | 0.0984 |  |  | 
7 | B7 |  |  | 1.39 | 0.0907 | 
8 | B8 |  |  |  |  | Phage binding ELISA signal, Anti-PSMA Fab (PSMA Fab (006 PSMA Fab) [1]): 1.45; Phage binding ELISA signal, Anti-PSMA Fab in presence of PSMA antigen (PSMA Fab (006 PSMA Fab) [2]): 0.0679
9 | B9 |  |  | 1.38 | 0.0838 | 
10 | B10 |  |  | 1.38 | 0.103 | 
11 | B11 | 1.37 | 0.0988 |  |  | 
12 | B12 |  |  | 1.39 | 0.0904 | 
13 | B13 | 1.37 | 0.078 |  |  | 
14 | B14 |  |  | 1.39 | 0.0793 | 
15 | B15 |  |  | 1.39 | 0.0617 | 
16 | B16 |  |  |  |  | Phage binding ELISA signal, Anti-PSMA Fab (PSMA Fab (006 PSMA Fab) [1]): 1.45; Phage binding ELISA signal, Anti-PSMA Fab in presence of PSMA antigen (PSMA Fab (006 PSMA Fab) [2]): 0.0597
17 | B17 | 1.37 | 0.0716 |  |  | 
18 | B18 |  |  | 1.4 | 0.0544 | 
19 | B19 |  |  | 1.39 | 0.0663 | 

Row | Binder | Phage binding ELISA signal, Anti-PSMA Fab (PSMA Fab [3]) | Phage binding ELISA signal, Anti-PSMA Fab with PSMA antigen (PSMA Fab [4]) | phage binding ELISA signal (006 PSMA Fab [5]) | phage binding ELISA signal in presence of PSMA (006 PSMA Fab [6]) | other results
20 | B20 |  |  |  |  | Phage binding ELISA signal, Anti-PSMA Fab (PSMA Fab (006 PSMA Fab) [1]): 1.45; Phage binding ELISA signal, Anti-PSMA Fab in presence of PSMA antigen (PSMA Fab (006 PSMA Fab) [2]): 0.0665
21 | B21 |  |  |  |  | Phage binding ELISA signal, Anti-PSMA Fab (PSMA Fab (006 PSMA Fab) [1]): 1.45; Phage binding ELISA signal, Anti-PSMA Fab in presence of PSMA antigen (PSMA Fab (006 PSMA Fab) [2]): 0.0771
22 | B22 |  |  | 1.4 | 0.0727 | 
23 | B23 |  |  |  |  | Phage binding ELISA signal, Anti-PSMA Fab (PSMA Fab (006 PSMA Fab) [1]): 1.45; Phage binding ELISA signal, Anti-PSMA Fab in presence of PSMA antigen (PSMA Fab (006 PSMA Fab) [2]): 0.0647
24 | B24 | 1.37 | 0.085 |  |  | 
25 | B25 |  |  | 1.4 | 0.0859 | 
26 | B26 |  |  | 1.38 | 0.138 | 
27 | B27 | 1.38 | 0.123 |  |  | 
28 | B28 |  |  | 1.38 | 0.0806 | 
29 | B29 |  |  | 1.39 | 0.101 | 
30 | B30 |  |  | 1.39 | 0.0834 | 
31 | B31 |  |  |  |  | Phage binding ELISA signal, Anti-PSMA Fab (PSMA Fab (006 PSMA Fab) [1]): 1.45; Phage binding ELISA signal, Anti-PSMA Fab in presence of PSMA antigen (PSMA Fab (006 PSMA Fab) [2]): 0.119
32 | B32 | 1.37 | 0.078 |  |  | 
33 | B33 | 1.38 | 0.0594 |  |  | 
34 | B34 |  |  | 1.38 | 0.0692 | 
35 | B35 | 1.38 | 0.0997 |  |  | 
36 | B36 |  |  |  |  | Phage binding ELISA signal, Anti-PSMA Fab (PSMA Fab (006 PSMA Fab) [1]): 1.45; Phage binding ELISA signal, Anti-PSMA Fab in presence of PSMA antigen (PSMA Fab (006 PSMA Fab) [2]): 0.0715
37 | B37 | 1.37 | 0.0757 |  |  | 
38 | B38 |  |  | 1.38 | 0.0713 | 
